Among the data in paper PMC4287840 are binding result, Kd and binding signal values, retold here.

The Kd is the concentration at which binding is half-saturated. High values mean lower affinity, low ones higher affinity.

Series [1] has as its target T1, angiopoietin-2 (Ang2) (human, UniProt O15123 19-496). The series is described as follows: ELONA sandwich.
Series [2] addresses T1, angiopoietin-2 (Ang2). The series is described as follows: bead-based fluorescence assay.
Series [3] has as its target T1, angiopoietin-2 (Ang2). The series can be described thus: bead-based fluorescence assay. The source holds these as a separate data set.
The target in series [4] is T1, angiopoietin-2 (Ang2). The series is described as follows: bead-based fluorescence assay. The source holds these as a separate data set.

T1 sequence (O15123 19-496): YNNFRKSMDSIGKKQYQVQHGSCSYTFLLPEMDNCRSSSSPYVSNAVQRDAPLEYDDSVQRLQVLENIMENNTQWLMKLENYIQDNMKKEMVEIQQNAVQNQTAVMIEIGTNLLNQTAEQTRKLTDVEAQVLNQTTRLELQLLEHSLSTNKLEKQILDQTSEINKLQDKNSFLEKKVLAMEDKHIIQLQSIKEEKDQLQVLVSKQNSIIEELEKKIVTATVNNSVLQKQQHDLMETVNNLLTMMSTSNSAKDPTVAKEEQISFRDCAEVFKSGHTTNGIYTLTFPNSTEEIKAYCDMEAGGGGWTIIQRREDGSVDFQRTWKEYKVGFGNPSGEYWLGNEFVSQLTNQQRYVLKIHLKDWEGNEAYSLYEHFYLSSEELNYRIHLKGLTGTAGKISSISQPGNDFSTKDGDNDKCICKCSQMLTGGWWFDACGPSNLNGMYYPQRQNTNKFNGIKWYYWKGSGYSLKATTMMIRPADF

B1: ABA65 (ssDNA)
DNA: TTTGGGGTGGTTGGGGGTTGTTGTTTTGGGGGTGGAGGGT
On to B1, for which the binding result in series [1] was “binds”.

B2: 25T linker (ssDNA)
DNA: TTTTTTTTTTTTTTTTTTTTTTTTT
In series [2], B2 came in with a Kd of 210 ± 49.4 nM.

B3: ABA92 (ssDNA)
DNA: GGTGCCATTGGGGACTGCTCGGGATTGCGGACTTGGCATC
Regarding B3, the binding result in series [3] is given as “binds”.

B4: ABA1 (ssDNA)
DNA: ACTTGTAGGGTTCGGCTGGTCAGGGTGTCCAAGTCTGTGG
Take B4: in series [4], the binding signal was ~210 fold higher Kd than ABA1-ABA65 (97 pM).

B5: ABA109 (ssDNA)
DNA: GGGTGCCATTGGGGACTGCTCGGGATTGCGGACTTGGCAT
With B5, in series [3], the binding result was “binds”.
